Assay results reported in PMC2759517.

Molecular target: HA-tagged PA of FluA (Influenza A virus)
Experiment: ELISA

Chain of soluble wild-type PB1_(1–25)A peptide (non-biotinylated competitor) (A4GCI3 1-25): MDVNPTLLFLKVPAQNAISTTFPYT

## soluble wild-type PB1_(1–25)A peptide (non-biotinylated competitor)
  IC50: 1.8 nM
